According to patent publication US20090285807A1 (METHERESIS TRANSLATIONAL RESEARCH, published 2009):

B1: recombinant AntiMET-R produced by carcinoma cell lines transduced with the bi-directional lentiviral vector carrying AntiMET-R cDNAs (antibody, mouse IgG2a, kappa, V domains shown)
VH: QVQLQQPGTELVKPGASVKLSCKASGYTFTSYWIHWVKQRPGQGLEWIGEINPSSGRTNYNEKFKNKVTVTVDKSSTTAYMQLSNLTSEDSAVYYCASRGYWGQGTTLTVSS
VL: DIVLTQSPASLAVSLGQRATISCKASQSVDYDGGSYMSWFQQRPGQPPKLLISAASNLESGIPARFSGSGSGTDFTLNIHPVEEEDVATYYCQQSYEDPLTFGAGTKLELKR
B2: AntiMET-R, anti-Met monoclonal antibody produced by the hybridoma cell line ICLC PD 05006 (antibody, mouse IgG2a, kappa, V domains shown)
VH: B1 VH
VL: B1 VL
notes: Mouse monoclonal antibody from a hybridoma; They may include leader peptides; also called purified AntiMET-R

Tests used:
[1] = target: T1, Hepatocyte Growth Factor Receptor (HGFR, Met receptor), full length, endogenous in human tumor cells (GTL-16) (human, UniProt P08581 25-1390); assay: immunoprecipitation of Met receptor from cell lysates, Western blot with anti-Met C-terminal antibody (FIG. 11A)
T1 construct: whole, on cells; The mature receptor is a disulfide-linked alpha/beta heterodimer cleaved from one precursor; also called HGF receptor
T1 sequence (P08581 25-1390): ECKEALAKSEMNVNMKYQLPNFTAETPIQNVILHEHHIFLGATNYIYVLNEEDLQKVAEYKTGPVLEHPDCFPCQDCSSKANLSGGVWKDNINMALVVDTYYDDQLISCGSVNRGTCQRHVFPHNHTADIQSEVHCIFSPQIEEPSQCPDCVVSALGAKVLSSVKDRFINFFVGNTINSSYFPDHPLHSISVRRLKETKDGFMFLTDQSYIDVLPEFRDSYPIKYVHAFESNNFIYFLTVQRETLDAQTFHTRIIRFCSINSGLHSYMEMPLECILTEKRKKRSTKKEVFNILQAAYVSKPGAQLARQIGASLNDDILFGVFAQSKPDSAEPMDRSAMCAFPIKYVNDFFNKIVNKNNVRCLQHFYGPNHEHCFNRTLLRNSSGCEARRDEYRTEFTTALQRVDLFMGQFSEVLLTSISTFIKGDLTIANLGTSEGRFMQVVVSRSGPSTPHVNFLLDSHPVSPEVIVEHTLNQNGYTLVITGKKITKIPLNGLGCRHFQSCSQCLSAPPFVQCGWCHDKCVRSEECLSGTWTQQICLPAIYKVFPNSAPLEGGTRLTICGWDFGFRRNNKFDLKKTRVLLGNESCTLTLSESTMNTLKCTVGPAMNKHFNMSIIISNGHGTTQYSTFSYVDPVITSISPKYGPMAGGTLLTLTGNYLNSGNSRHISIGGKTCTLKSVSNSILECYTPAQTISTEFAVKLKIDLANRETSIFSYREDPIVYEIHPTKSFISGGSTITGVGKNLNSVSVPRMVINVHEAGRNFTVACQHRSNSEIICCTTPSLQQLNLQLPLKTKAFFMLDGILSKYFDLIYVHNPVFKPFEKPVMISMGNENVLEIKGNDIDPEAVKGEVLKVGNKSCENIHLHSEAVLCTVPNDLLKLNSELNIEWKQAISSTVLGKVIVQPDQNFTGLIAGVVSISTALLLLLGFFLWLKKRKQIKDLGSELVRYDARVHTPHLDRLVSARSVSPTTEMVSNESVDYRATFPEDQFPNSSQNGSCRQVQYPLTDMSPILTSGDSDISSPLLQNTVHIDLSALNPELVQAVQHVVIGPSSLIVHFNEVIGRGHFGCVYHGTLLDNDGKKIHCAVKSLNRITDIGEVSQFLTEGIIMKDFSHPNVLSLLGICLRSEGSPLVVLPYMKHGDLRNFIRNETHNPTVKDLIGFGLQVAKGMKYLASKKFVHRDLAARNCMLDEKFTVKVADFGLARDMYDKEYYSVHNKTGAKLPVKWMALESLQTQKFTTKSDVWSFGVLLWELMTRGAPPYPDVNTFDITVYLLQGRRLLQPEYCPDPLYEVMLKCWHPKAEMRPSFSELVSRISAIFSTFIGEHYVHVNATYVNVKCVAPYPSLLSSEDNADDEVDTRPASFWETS
Procedure: FIG. 11: The recombinant AntiMET-R binds with high affinity the extracellular domain of Met. (A) Western blot analysis of cell lysates containing the Met Receptor immunoprecipitated with the AntiMET-R derived from different sources (hybridoma or genetically modified carcinoma cell line). The immunoprecipitation was performed incubating Seph. Prot. G with cell culture supernatants from 1: Hybridoma producing unrelated MAb; 2 Hybridoma producing AntiMET-R MAb; 3: MDA-MB 435 cells infected with lentiviral vector carrying cDNAs for AntiMET-R MAb 4: MDA-MB 435 cells not infected. Samples were subjected to SDS-PAGE under reducing condition and the corresponding filters were probed with an anti-Met antibody directed against the c-Terminal tail of the receptor. (B) Binding assay of the AntiMET-R and the recombinant AntiMET-R to the extracellular domain of the Met Receptor. 96 wells plate coated with purified MET extracellular domain fused to the Fc domain derived from Human Ig (100 ng/well) was incubated with increasing concentrations of purified AntiMET-R or recombinant AntiMET-R (from 0 to 5.5 nM). […] To control the specificity of binding we performed the same assay using wells coated with Fc-Ron (a chimera protein generated fusing the Fc domain of Human Ig to the extracellular domain of the Ron receptor, a protein belonging to the Met receptor family).

[2] = target: T2, SEMA PSI (aminoacids 1-562), truncated form of Decoy Met containing the SEMA domain and the PSI region, myc- … (human, UniProt P08581 25-562); assay: immunoprecipitation from conditioned medium, Western blot with anti-myc
T2 construct: range 25-562; also called myc-tagged SEMA PSI
T2 sequence (P08581 25-562 limits assumed): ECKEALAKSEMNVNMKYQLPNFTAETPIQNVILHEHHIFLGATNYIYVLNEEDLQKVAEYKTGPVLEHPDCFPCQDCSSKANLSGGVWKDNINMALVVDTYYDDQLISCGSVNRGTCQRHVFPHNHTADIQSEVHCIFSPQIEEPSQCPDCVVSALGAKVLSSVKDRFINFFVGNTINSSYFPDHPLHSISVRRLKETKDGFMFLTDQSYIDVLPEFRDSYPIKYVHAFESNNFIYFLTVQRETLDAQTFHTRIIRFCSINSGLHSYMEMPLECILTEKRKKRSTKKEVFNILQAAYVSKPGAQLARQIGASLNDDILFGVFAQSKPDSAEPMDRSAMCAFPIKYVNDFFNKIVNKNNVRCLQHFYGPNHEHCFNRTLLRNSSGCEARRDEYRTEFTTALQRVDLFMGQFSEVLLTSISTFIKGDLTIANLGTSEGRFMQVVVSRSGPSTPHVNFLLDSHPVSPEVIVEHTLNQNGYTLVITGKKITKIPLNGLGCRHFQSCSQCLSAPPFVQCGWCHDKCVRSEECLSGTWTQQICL
Excerpt: (§1) FIG. 18: AntiMET-R specifically recognizes an epitope located in the IPTs region. Conditioned media of MDA-MB-435 cells transduced with lentiviral vector particles encoding for myc-tagged Decoy Met, myc-tagged SEMA PSI and myc-tagged PSI IPT1-4 were immunoprecipitated with the antiMET-R antibody and detected by Western blot using a biotinylated anti-myc antibody (right panel). Equal amounts of conditioned media were loaded as a control for protein expression (left panel). CTRL: conditioned medium of MDA-MB-435 cells transduced with an empty lentiviral vector. Decoy Met: conditioned medium of MDA-MB-435 cells transduced with a lentiviral vector expressing the entire HGFR extracellular domain. PSI-IPT: conditioned medium of MDA-MB-435 cells transduced with a lentiviral vector expressing PSI, IPT-1, IPT-2, IPT-3, IPT-4 domains of the HGFR. SEMA-PSI: conditioned medium of MDA-MB-435 cells transduced with a lentiviral vector expressing Sema and PSI domains of the HGFR. On the right molecular weight in KD are shown.
(§2) Conditioned media of MDA-MB-435 cells transduced with myc-tagged Decoy Met, SEMA PSI and PSI IPT were immunoprecipitated with the AntiMET-R antibody and detected by Western blot using a biotinylated anti-myc antibody (FIG. 18, right panel). […]

[3] = target: T3, Decoy Met (aminoacids 1-932), soluble recombinant entire extracellular region of human Met, myc- and … (human, UniProt P08581 25-932); assay: as above
T3 construct: range 25-932; Numbering follows GenBank X54559; also called myc-tagged Decoy Met; Met ectodomain
T3 sequence (P08581 25-932 limits assumed): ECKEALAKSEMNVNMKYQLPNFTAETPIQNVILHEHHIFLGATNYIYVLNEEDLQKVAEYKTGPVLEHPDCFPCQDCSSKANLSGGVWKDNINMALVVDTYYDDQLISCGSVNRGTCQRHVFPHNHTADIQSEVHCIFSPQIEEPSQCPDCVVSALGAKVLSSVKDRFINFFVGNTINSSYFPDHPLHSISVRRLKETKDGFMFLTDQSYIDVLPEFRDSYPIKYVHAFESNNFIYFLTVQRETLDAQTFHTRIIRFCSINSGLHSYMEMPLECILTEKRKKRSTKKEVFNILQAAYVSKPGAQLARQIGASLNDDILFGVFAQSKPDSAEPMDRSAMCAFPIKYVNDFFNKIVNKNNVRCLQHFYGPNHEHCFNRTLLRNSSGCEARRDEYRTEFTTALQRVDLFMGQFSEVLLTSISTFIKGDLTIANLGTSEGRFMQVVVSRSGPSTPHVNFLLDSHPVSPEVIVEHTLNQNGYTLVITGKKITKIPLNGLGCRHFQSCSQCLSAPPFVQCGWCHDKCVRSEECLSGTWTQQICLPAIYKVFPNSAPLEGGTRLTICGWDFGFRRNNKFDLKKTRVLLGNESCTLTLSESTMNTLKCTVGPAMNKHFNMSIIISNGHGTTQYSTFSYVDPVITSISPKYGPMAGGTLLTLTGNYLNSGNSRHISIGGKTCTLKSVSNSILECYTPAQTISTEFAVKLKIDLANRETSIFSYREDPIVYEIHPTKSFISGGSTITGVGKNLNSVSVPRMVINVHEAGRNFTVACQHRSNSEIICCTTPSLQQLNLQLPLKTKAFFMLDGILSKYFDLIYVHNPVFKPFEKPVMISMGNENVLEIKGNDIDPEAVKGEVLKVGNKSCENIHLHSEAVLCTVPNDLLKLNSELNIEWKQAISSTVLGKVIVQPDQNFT
Excerpt: as §1, §2

[4] = target: T1, Hepatocyte Growth Factor Receptor …; assay: flow cytometry on GTL-16 cells (50 ug/ml antibody) and immunofluorescence on fixed GTL-16 cells (2.5 ug/ml)
Procedure: For Flow cytometry analysis, 10⁵ GTL-16 cells were detached with PBS-EDTA 0.025%, washed with PBS and incubated with 50 μg/ml of antiMet-R antibody or the same amount of isotype control mouse Ig for 15′ RT. After 2 washes with PBS, the cells were incubated with 15 μg/ml of FITC conjugated Goat anti-mouse Ig (Jackson Immunoresearch laboratories) for 15′ RT. Cells were than washed, re-suspended in PBS-5% BSA and analysed by flow cytometry (Becton Dickinson, Mountain View, Calif.). GTL-16 cells were fixed in methanol:aceton (3:1) for 5′ on ice then blocked with 2% goat serum in PBS for 30′ at RT. […] Analysis of the samples was performed with a fluorescence microscope (DM-IRB, Leica Microsystems).
GTL-16 cells, a human gastric carcinoma cell line, were incubated with the AntiMET-R antibody. […] Infact the mean of fluorescence intensity in cells labelled with the antiMet-R antibody was increased respect to ctrl cells (FIG. 20, panel A). GTL-16 cells were also incubated, after fixation, with the antiMet-R antibody to perform an immunofluoresce analysis.

Binder	binding result [1]	binding result [2]	binding result [3]	binding result [4]
B1	binds			
B2		no binding	binds	binds
